B1: Y^233→A (protein)
chain: ARDISSTNVTDLTVSPSKIEDGGKTTVKMTFDDKNGKIQNGDMIKVAWPTSGTVKIEGYSKTVPLTVKGEQVGQAVITPDGATITFNDKVEKLSDVSGFAEFEVQGRNLTQTNTSDDKVATITSGNKSTNVTVHKSEAGTSSVFYYKTGDMLPEDTTHVRWFLNINNEKSYVSKDITIKDQIQGGQQLDLSTLNINVTGTHSNAYSGQSAITDFEKAFPGSKITVDNTKNTIDVTIPQGYGSYNSFSINYKTKITNEQQKEFVNNSQAWYQEHGKEEVNGKSFNHTVHNINANAGIEGTVKGELKVLKQDKDTKAPIANVKFKLSKKDGSVVKDNQKEIEIITDANGIANIKALPSGDYILKEIEAPRPYTFDKDKEYPFTMKDTDNQGYFTTIENAKAIEKTKDVSAQKVWEGTQKVKPTIYFKLYKQDDNQNTTPVDKAEIKKLEDGTTKVTWSNLPENDKNGKAIKYLVKEVNAQGEDTTPEGYTKKENGLVVTNTE
B2: double mutant (protein)
chain: B1 chain with N203A
B3: 212Q→A (protein)
chain: ITSGNKSTNVTVHKSEAGTSSVFYYKTGDMLPEDTTHVRWFLNINNEKSYVSKDITIKDQIAGGQQLDLSTLNINVTGTHSNYYSGQSAITDFEKAFPGSKITVDNTKNTIDVTIPQGYGSYNSFSINYKTKITNEQQKEFVNNSQAWYQEHGKEEVNGKSFNHTVHN
B4: 233Y→A (protein)
chain: B3 chain with A62Q, Y83A
B5: 221T→K (protein)
chain: B3 chain with A62Q, T71K
B6: 193N→K (protein)
chain: B3 chain with N43K, A62Q
B7: 232N→A (protein)
chain: B3 chain with A62Q, N82A
B8: 223N→K (protein)
chain: B3 chain with A62Q, N73K
B9: 191F→A (protein)
chain: B3 chain with F41A, A62Q
B10: 225N→K (protein)
chain: B3 chain with A62Q, N75K
B11: 189R→A (protein)
chain: B3 chain with R39A, A62Q
B12: 175Y→K (protein)
chain: B3 chain with Y25K, A62Q
B13: 278N→K (protein)
chain: B3 chain with A62Q, N128K

Residue numbers refer to the chain shown, from its start. Where “and” joins values, the source holds several entries; their conditions need not be identical. Equal entries are not always repeated.

Chain of Col type II (P02458 182-1241 limits assumed): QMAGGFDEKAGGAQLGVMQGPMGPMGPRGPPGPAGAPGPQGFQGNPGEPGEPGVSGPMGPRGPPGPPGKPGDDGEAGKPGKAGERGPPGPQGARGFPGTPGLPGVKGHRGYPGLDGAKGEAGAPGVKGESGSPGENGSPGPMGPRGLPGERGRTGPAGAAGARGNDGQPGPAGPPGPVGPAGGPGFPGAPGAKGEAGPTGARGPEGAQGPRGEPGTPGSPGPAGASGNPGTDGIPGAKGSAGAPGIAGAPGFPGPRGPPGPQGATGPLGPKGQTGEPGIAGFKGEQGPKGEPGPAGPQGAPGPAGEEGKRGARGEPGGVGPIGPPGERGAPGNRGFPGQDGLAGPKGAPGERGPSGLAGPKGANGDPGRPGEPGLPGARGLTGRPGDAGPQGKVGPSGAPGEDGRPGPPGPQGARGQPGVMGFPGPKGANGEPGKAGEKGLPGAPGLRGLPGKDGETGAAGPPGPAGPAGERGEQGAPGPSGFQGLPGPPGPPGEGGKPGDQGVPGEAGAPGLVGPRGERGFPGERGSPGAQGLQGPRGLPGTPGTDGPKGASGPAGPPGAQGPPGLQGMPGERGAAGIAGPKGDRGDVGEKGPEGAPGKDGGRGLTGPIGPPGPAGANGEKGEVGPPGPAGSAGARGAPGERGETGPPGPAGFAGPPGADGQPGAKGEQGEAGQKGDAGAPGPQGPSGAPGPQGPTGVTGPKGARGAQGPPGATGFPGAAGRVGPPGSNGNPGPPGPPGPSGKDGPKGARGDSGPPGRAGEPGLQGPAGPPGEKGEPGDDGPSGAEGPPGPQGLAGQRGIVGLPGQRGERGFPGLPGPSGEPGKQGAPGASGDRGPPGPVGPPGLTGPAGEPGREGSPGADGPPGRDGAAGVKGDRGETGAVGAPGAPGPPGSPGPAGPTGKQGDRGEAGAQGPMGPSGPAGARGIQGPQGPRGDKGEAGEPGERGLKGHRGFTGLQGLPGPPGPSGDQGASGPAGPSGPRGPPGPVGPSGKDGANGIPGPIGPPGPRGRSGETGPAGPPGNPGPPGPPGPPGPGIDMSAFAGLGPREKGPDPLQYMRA

The target of one experiment is immobilized type II Col (Homo sapiens, UniProt P02458). Nature of the experiment: BIAcore analysis of CBD(30-529) and mutants on immobilized type II Col.
Chain of immobilized type II Col (P02458 182-1241 limits assumed): as above
Settings: not given
Type of experiment: binding. The source says:
The importance of amino acid residues Asn^232 and Tyr ^33 in the MSCRAMM for Col binding was examined by creating specific mutants of CBD (30-529) and characterizing the interactions of these mutants with immobilized type II Col using the BlAcore. In the mutations made, the identified amino acid residues were replaced individually, (N^232 →A, Y^233 →A) or as a pair, (N^232 →A:Y^233→A) with alanine, a residue that is not expected to interfere with the existing secondary structure. The corresponding base changes were made using overlap extension PCR™ as described and the sequence changes confirmed experimentally. The recombinant proteins containing the mutations were purified to homogeneity by metal ion chelating chromatography.
True equilibrium was not obtained during the injection time period due to the slow dissociation rate (koff). […] The dissociation phase gives information about the koff, and this rate is independent of the number of binding sites, analyte concentration, and flow rate. […] The association phase contains the information to determine the association rate koff the interaction, but it is also influenced by the dissociation rate, the number of binding sites for each interaction, and the concentration of the analyte. Because of the complexity of this interaction and the absence of measurable equilibrium data, it was not possible to determine the binding constant (KD), apparent binding ratio (BRapp), and kon.
Consider B1, for which the “affinity and apparent binding ratio compared to wild type” value was “even more significant decreasesin affinity and apparent binding ratio”.
Same read-out and setting: to B2 belongs “even more significant decreasesin affinity and apparent binding ratio”.

Still in this experiment, the particulars now being: Scatchard analysis or Equation 1.
With B2, the “apparent binding ratio (BRapp)” value is given as “approximately two to three high affinity sites”.

The next experiment has as its target Col type II (Homo sapiens, UniProt P02458). Description: Biosensor analysis of CBD(151-318) and single-site mutants binding to Col type II. The following applies: approximate binding ratio. The source says: Mutational analysis was used to evaluate the putative binding site defined by the docking search. […] The surface area covered by the docked Col is about 1630 Å^2, which is 22% of the total solvent-accessible surface of CBD(172-318). […] Nine of these residues were mutated as well as two additional residues outside the putative binding region. The single-site lysine and alanine mutations were designed to disrupt the surface of the putative Col binding groove of wild type CBD(15 1-318). […] The MSCRAMM recognizes generic triple-helical structures (Speziale et al., 1986; Sakakibara et al., 1973; Heidemann and Roth, 1982), therefore, changes in the low-affinity dissociation constants were used to evaluate alterations in the binding of the mutant proteins (House-Pompeo et al., 1994).
Take B3: the BR is listed as 10.
The same measure, in the same setting: to B4 belongs 11; to B5, 9.
As to B6, the BR was determined as 12.
On the same count and under the same terms, the value for B7 was 12; that for B8 was 10.
Still for that read-out and setting: the value for B9 was 10; that for B10 was 10.
Still for that read-out and setting: to B11 belongs greater than 13.
For B12, the BR was greater than 20.
Regarding B13, the BR came out at 9.

Still in this experiment, the particulars now being: in words.
B3: the “Col-binding activity / affinity for Col compared with wild type CBD(151-318)” value was “did not differ significantly from that of wild type CBD(151-318)”.
Consider B5, for which the “Col-binding activity / affinity for Col compared with wild type CBD(151-318)” value is reported as “did not differ significantly from that of wild type CBD(151-318)”.
Still for that read-out and setting: to B7 belongs “did not differ significantly from that of wild type CBD(151-318)”; to B10, “did not differ significantly from that of wild type CBD(151-318)”.

The next experiment concerns S. aureus strain Phillips. Nature of the experiment: Mouse sepsis model, active immunization, intravenous challenge with S. aureus expressing CBP. The experiment is classed as in vivo, mice. The following applies: 100μg/mouse on days -31, -18, -7; 2.8×10^7 cfu/mouse i.v. day 0; end day 14. The text has this: Gram-positive bacteria related sepsis is on the increase. In fact between one-third and one-half of all cases of sepsis are caused by gram-positive bacteria, particularly S. aureus and S. epidermidis. In the United States, it can be estimated that over 200,000 patients will develop gram-positive related sepsis this year. […] Mice were immunized subcutaneously with either M55 or a control antigen (bovine serum albumin) and then challenged intravenously with S. aureus. Eighty-three percent (35/42) of the mice immunized with M55 survived compared to only 27% of the BSA immunized mice (12/45). This is a compilation of 3 separate studies.
Day -31: 100μg/mouse of a CBP Epitope (i.e. M17, M31, or M55) or BSA emulsified with Freund's Complete adjuvant (Difco Laboratories) as a control.
Day -18: 100μg/mouse of a CBP Epitope (ie. M17, M31, or M55) or BSA dissolved in sterile phosphate buffered saline (PBS)
Day -7: 100μg/mouse of a CBP Epitope (i.e. M17, M31, or M55) or BSA dissolved in PBS
Day 0: inoculate intravenously S. aureus strain Phillips (which expresses CBP) (Dose: 2.8×10^7 cfu/mouse)
Day 14: end of study; all surviving mice were euthanized.
In the case of “M17: recombinant S. aureus Col-binding MSCRAMM derivative, amino acids 151-297 of full length CBP (SEQ ID NO:2)”, the mice died/total is listed as 10/15.
Same read-out and setting: to “M31: recombinant S. aureus Col-binding MSCRAMM derivative, amino acids 61-343 of full length CBP (SEQ ID NO:4)” belongs 12/14.

The experiment is the same for the next values; noted with them: in words.
For “full-length sequence: previously-identified full-length S. aureus CBP [reference compound]”, the protection against sepsis result is “does not confer protection against sepsis”.

In the next experiment the target is type II Col (collagen type II). Description: BIAcore, immobilized type II Col; Scatchard analysis or Equation 1.
Chain of type II Col (collagen type II) (P02459 182-1241): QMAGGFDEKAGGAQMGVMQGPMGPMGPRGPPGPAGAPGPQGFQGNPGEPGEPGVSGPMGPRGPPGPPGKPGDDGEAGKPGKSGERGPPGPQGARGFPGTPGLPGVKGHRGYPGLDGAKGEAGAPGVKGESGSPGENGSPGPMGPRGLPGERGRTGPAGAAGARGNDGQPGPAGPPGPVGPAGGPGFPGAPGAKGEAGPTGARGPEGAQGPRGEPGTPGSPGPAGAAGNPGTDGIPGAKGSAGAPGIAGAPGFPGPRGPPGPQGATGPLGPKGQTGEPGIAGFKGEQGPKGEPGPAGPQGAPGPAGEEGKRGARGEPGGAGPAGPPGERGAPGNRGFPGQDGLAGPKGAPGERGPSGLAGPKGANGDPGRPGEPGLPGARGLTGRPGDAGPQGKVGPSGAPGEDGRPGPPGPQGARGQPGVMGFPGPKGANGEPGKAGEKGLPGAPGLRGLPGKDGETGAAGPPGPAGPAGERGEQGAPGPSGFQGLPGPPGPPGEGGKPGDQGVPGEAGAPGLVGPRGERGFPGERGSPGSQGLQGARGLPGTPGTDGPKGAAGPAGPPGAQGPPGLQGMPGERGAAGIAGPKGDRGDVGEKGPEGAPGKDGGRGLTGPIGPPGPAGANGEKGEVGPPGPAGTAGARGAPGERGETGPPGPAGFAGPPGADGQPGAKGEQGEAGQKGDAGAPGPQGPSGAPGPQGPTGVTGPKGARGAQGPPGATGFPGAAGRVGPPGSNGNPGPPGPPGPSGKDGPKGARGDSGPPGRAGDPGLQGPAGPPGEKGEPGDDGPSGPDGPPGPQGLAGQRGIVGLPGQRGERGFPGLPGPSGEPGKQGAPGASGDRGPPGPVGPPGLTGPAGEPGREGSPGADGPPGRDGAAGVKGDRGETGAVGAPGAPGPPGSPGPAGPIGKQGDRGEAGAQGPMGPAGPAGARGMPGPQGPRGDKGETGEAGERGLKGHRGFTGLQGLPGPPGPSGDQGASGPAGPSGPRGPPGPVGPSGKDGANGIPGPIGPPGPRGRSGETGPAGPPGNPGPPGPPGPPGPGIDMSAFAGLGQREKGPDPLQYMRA
Settings: not given
On the technique in general: SPR reads the build-up and loss of mass on a sensor chip optically.
For the molecule “CBD (30-529) N^232→A:Y^233→A (from UniProt Q53654 30-529)”, the BRapp (apparent binding ratio) is 2 sites and 3 sites.

The next experiment deals with type II Col (collagen type II). Description: peptide (5 µM) incubated with ^125I-Col before addition of S. aureus cells.
Settings: not given
Molecule “Peptide CBD4 (from UniProt Q53654 209-233)” came in with a percent inhibition of ^125I-Col binding to S. aureus greater than 50%.

The target in another experiment is type II Col (collagen type II). Description: peptide at 10 µM, inhibition of ^125I-labeled Col binding to S. aureus cells.
Settings: not given
As to “Peptide CBD4 (from UniProt Q53654 209-233)”, the percent inhibition of ^125I-labeled Col binding to S. aureus is 76%.

The target of a further experiment is type II Col (collagen type II). Description: BIAcore, immobilized type II Col; three-component dissociation, the slowest component.
Settings: not given
For “CBD (30-529), recombinant S. aureus Col MSCRAMM fragment (wild type) (from UniProt Q53654 30-529)”, the off-rate (koff) (usually a measure of how fast the partners let go of each other) amounted to 0.0005 s⁻¹.

The target of a further experiment is type II Col (collagen type II). Description: BIAcore, immobilized type II Col; three-component dissociation, the two fastest components.
Settings: not given
Regarding “CBD (30-529), recombinant S. aureus Col MSCRAMM fragment (wild type) (from UniProt Q53654 30-529)”, the koff was greater than 0.01 s⁻¹.

For another experiment, the target named is type II Col (collagen type II). Nature of the experiment: biosensor analysis, equilibrium response; protein passed over covalently immobilized type II Col.
Settings: not given
In the case of “CBD(151-318) 175Y→K (from UniProt Q53654 151-318)”, the BR (approximate binding ratio) is greater than 20.
Take “CBD(151-318) 189R→A (from UniProt Q53654 151-318)”: the BR (approximate binding ratio) was greater than 13.
“CBD(151-318) 191F→A (from UniProt Q53654 151-318)”: the BR (approximate binding ratio) was found to be 10.
For the molecule “CBD(151-318) 193N→K (from UniProt Q53654 151-318)”, the BR (approximate binding ratio) was 12.
As to “CBD(151-318) 212Q→A (from UniProt Q53654 151-318)”, the BR (approximate binding ratio) stood at 10.
Still for that read-out and setting: the value for “CBD(151-318) 221T→K (from UniProt Q53654 151-318)” was 9.
The same measure, in the same setting: the value for “CBD(151-318) 223N→K (from UniProt Q53654 151-318)” was 10.
On the same count and under the same terms, the value for “CBD(151-318) 225N→K (from UniProt Q53654 151-318)” was 10; that for “CBD(151-318) 232N→A (from UniProt Q53654 151-318)” was 12.
For “CBD(151-318) 233Y→A (from UniProt Q53654 151-318)”, the BR (approximate binding ratio) was found to be 11.
“CBD(151-318) 278N→K (from UniProt Q53654 151-318)”: the BR (approximate binding ratio) is 9.
On the same count and under the same terms, the value for “CBD(151-318), recombinant Col-binding domain of the S. aureus CBP (wild type) (from UniProt Q53654 151-318)” was 10.

The values are drawn from patent US20020102262A1, “Collagen binding protein compositions and methods of use” (priority 1996, published 2002).
